Experimental data as given in US20250000976A1 (NATIONAL RESEARCH COUNCIL OF CANADA, published 2025).

T1: BCMA_B2x Gly6_Ala54 (human, UniProt Q02223)
T1 construct: limits given in the sample name
T1 yeast-displayed fusion (looked up): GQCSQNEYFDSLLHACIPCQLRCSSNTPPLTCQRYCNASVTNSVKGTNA

T2: BCMA_B9x Met1_Asp15 (human, UniProt Q02223)
T2 construct: limits given in the sample name
T2 yeast-displayed fusion (looked up): MLQMAGQCSQNEYFD

T3: BCMA_B3x Ile22_Ala54 (human, UniProt Q02223)
T3 construct: limits given in the sample name
T3 yeast-displayed fusion (looked up): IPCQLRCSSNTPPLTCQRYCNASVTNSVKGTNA

T4: BCMA_B10x Gly6_Ala43 (human, UniProt Q02223)
T4 construct: limits given in the sample name
T4 yeast-displayed fusion (looked up): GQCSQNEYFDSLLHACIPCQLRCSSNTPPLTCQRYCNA

T5: BCMA_B14x Gly6_Pro23 (C21S) (human, UniProt Q02223)
T5 construct: limits and substitution as printed in the sample name
T5 yeast-displayed fusion (looked up): GQCSQNEYFDSLLHASIP

T6: full-length hBCMA-ECD displayed on yeast (Aga2-HA-(hBCMA)-MYC) (human, UniProt Q02223 1-54)
T6 construct: range 1-54; stands here as the molecule on which the mapped regions are counted; also called hBCMA ecto-domain (ECD); not shown: Aga2-HA N-terminal fusion partner of the pPNL6 yeast display vector; C-terminal MYC tag
T6 sequence (looked up): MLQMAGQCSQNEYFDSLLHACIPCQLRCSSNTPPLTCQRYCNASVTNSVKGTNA

T7: BCMA_B16x Ile22_Ala43 (C41S) (human, UniProt Q02223)
T7 construct: limits and substitution as printed in the sample name
T7 yeast-displayed fusion (looked up): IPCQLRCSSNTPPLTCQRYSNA

T8: BCMA_B17x Ile22_Tyr40 (human, UniProt Q02223)
T8 construct: limits given in the sample name
T8 yeast-displayed fusion (looked up): IPCQLRCSSNTPPLTCQRY

T9: BCMA_B22x Arg27_Tyr40 (C37S) (human, UniProt Q02223)
T9 construct: limits and substitution as printed in the sample name
T9 yeast-displayed fusion (looked up): RCSSNTPPLTSQRY

T10: BCMA_B4x Arg27_Ala54 (human, UniProt Q02223)
T10 construct: limits given in the sample name
T10 yeast-displayed fusion (looked up): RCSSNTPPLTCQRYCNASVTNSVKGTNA

T11: BCMA_B21x Arg27_Tyr40 (human, UniProt Q02223)
T11 construct: limits given in the sample name
T11 yeast-displayed fusion (looked up): RCSSNTPPLTCQRY

T12: BCMA_B20x Arg27_Ala43 (C41S) (human, UniProt Q02223)
T12 construct: limits and substitution as printed in the sample name
T12 yeast-displayed fusion (looked up): RCSSNTPPLTCQRYSNA

T13: BCMA_B5x Gln38_Ala54 (human, UniProt Q02223)
T13 construct: limits given in the sample name
T13 yeast-displayed fusion (looked up): QRYCNASVTNSVKGTNA

T14: BCMA_B8x Met1_Pro23 (human, UniProt Q02223)
T14 construct: limits given in the sample name
T14 yeast-displayed fusion (looked up): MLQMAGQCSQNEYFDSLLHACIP

T15: hBCMA-ECD-FC5VHH (human, UniProt Q02223 1-54, biotinylated in vivo ; biotinylated in vivo on the tag of the carrier part, which is not in the letters)
T15 construct: Made in HEK-293 cells, monomeric SEC fraction; The methods say about 500 RU captured on an SA chip; the results say immobilised on a CM5 chip; also called hBCMA-FC5; human BCMA-ECD; not shown: FC5 VHH carrier, any linker, and the His and biotinylation tags
T15 sequence: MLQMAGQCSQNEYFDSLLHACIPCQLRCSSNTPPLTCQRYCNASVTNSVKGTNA

T16: BCMA_B15x Ile22_Ala43 (human, UniProt Q02223)
T16 construct: limits given in the sample name
T16 yeast-displayed fusion (looked up): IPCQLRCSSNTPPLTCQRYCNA


Legend:
BCMA_B2x Gly6_Ala54 = target: T1, BCMA_B2x Gly6_Ala54; experiment: yeast cell ELISA, sample BCMA_B2x Gly6_Ala54
Experimental: (§1) The YSD vector (pPNL6) was from The Pacific Northwest National Laboratory, USA. […] The HRP activity was assayed with substrate TMB (tetramethyl benzidine) according to the manufacture's conditions and read at OD₄₅₀.
(§2) The assays were performed as described in the Materials and Method, and OD₄₅₀ was measured. Note that OD₄₅₀ reads equal or less than 0.100 were scored as zero for clarity.

BCMA_B9x Met1_Asp15 = target: T2, BCMA_B9x Met1_Asp15; experiment: yeast cell ELISA, sample BCMA_B9x Met1_Asp15
Experimental: as §1, §2

BCMA_B3x Ile22_Ala54 = target: T3, BCMA_B3x Ile22_Ala54; experiment: yeast cell ELISA, sample BCMA_B3x Ile22_Ala54
Experimental: as §1, §2

BCMA_B10x Gly6_Ala43 = target: T4, BCMA_B10x Gly6_Ala43; experiment: yeast cell ELISA, sample BCMA_B10x Gly6_Ala43
Experimental: as §1, §2

[1] = target: T5, BCMA_B14x Gly6_Pro23 (C21S); experiment: yeast cell ELISA, sample BCMA_B14x Gly6_Pro23 (C21S)
Experimental: as §1, §2

[2] = target: T6, full-length hBCMA-ECD displayed on …; experiment: yeast cell ELISA, sample BCMA_B1x Met1_Ala54
Experimental: as §1, §2

[3] = target: T7, BCMA_B16x Ile22_Ala43 (C41S); experiment: yeast cell ELISA, sample BCMA_B16x Ile22_Ala43 (C41S)
Experimental: as §1, §2

BCMA_B17x Ile22_Tyr40 = target: T8, BCMA_B17x Ile22_Tyr40; experiment: yeast cell ELISA, sample BCMA_B17x Ile22_Tyr40
Experimental: as §1, §2

[4] = target: T9, BCMA_B22x Arg27_Tyr40 (C37S); experiment: yeast cell ELISA, sample BCMA_B22x Arg27_Tyr40 (C37S)
Experimental: as §1, §2

BCMA_B4x Arg27_Ala54 = target: T10, BCMA_B4x Arg27_Ala54; experiment: yeast cell ELISA, sample BCMA_B4x Arg27_Ala54
Experimental: as §1, §2

BCMA_B21x Arg27_Tyr40 = target: T11, BCMA_B21x Arg27_Tyr40; experiment: yeast cell ELISA, sample BCMA_B21x Arg27_Tyr40
Experimental: as §1, §2

[5] = target: T12, BCMA_B20x Arg27_Ala43 (C41S); experiment: yeast cell ELISA, sample BCMA_B20x Arg27_Ala43 (C41S)
Experimental: as §1, §2

BCMA_B5x Gln38_Ala54 = target: T13, BCMA_B5x Gln38_Ala54; experiment: yeast cell ELISA, sample BCMA_B5x Gln38_Ala54
Experimental: as §1, §2

BCMA_B8x Met1_Pro23 = target: T14, BCMA_B8x Met1_Pro23; experiment: yeast cell ELISA, sample BCMA_B8x Met1_Pro23
Experimental: as §1, §2

hBCMA-ECD-FC5VHH = target: T15, hBCMA-ECD-FC5VHH; experiment: SPR (Biacore T200), VHH 20-500 nM over BCMA-ECD surface, 25 C
Experimental: For surface Plasmon resonance, 15 selected VHHs were passed though size exclusion columns, Superdex 75 (GE Healthcare), respectively, in 10 mM HEPES, pH 7.4, containing 150 mM NaCl, 3 mM EDTA, monomeric sdAb fractions were collected and protein concentrations were determined by measuring absorbance at 280 nm (A280). Analysis were performed with Biacore T200 instrument (GE Healthcare). All measurements were carried out at 25° C. in 10 mM HEPES, pH 7.4, containing 150 mM NaCl, 3 mM EDTA and 0.005% surfactant P20 (GE Healthcare). Approximately 500 RUs of the recombinant monomeric BCMA-ECD (obtained after SEC purification of the BCMA-ECD-FC5VHH) were captured on SA sensor chip (GE Healthcare) at a flow rate of 5 uL/min. Various concentration of the monomeric VHHs (20-500 nM) were injected over BCMA-ECD surface, respectively using an SA surface as a reference at a flow rate of 40 μL/min. Surfaces were generated by washing with running buffer. Data were analysed with BIAevaluation 4.1 software.
The monomeric fraction of all 15 VHHs were used for SPR experiment where the human BCMA-ECD or mouse BCMA was immobilized onto the CM5 dextran chip and various VHH concentration (20-500 nM) were passed over the sensor chip.

BCMA_B15x Ile22_Ala43 = target: T16, BCMA_B15x Ile22_Ala43; experiment: yeast cell ELISA, sample BCMA_B15x Ile22_Ala43
Experimental: as §1, §2

Row | OD450 (BCMA_B2x Gly6_Ala54) | binding result (BCMA_B9x Met1_Asp15) | binding result (BCMA_B3x Ile22_Ala54) | OD450 (BCMA_B10x Gly6_Ala43) | binding result [1] | OD450 [2] | binding result [3] | binding result (BCMA_B17x Ile22_Tyr40) | binding result [4] | binding result (BCMA_B4x Arg27_Ala54) | binding result (BCMA_B21x Arg27_Tyr40) | binding result [5] | binding result (BCMA_B5x Gln38_Ala54) | binding result (BCMA_B8x Met1_Pro23) | Kd (hBCMA-ECD-FC5VHH) [nM] | koff (hBCMA-ECD-FC5VHH) [s⁻¹] | kon (hBCMA-ECD-FC5VHH) [M⁻¹ s⁻¹] | binding result (BCMA_B15x Ile22_Ala43) | OD450 (BCMA_B8x Met1_Pro23) | Binder
1 | 2.16 | no binding | no binding | 2.23 | no binding | 2.78 | no binding | no binding | no binding | no binding | no binding | no binding | no binding | no binding | 0.379 | 0.000509 | 1.34e+06 | no binding |  | hBCMA-H4 (VHH, single biotin on the C-terminal AviTag, also called VHH-H4; not shown: C-terminal His tag and AviTag biotinylation signal from pMRO vector) VHH: QVQLVESGGGLVQPGGSLRLSCAASGDSFGAYAMGWYRQAPGKQRELVAAISSAGNTFYRDSVKGRFTVSRNNAKNAMYLQMDRLKPEDTAVYQCNGAPWADEPVKVWNWGLGTQVTVSS
2 | 2.92 | no binding | no binding | 2.6 | no binding | 2.12 | no binding | no binding | no binding | no binding | no binding | no binding | no binding |  | 0.0801 | 0.000343 | 4.28e+06 | no binding | 2.89 | hBCMA-H2 (VHH, single biotin on the C-terminal AviTag, also called VHH-H2; not shown: C-terminal His tag and AviTag biotinylation signal from pMRO vector) VHH: QVKAEESGGGLVRPGDSLRLTCTISGRTSNNFVMAWFRRTPGKEREYVATRVWSGSTPYYHDSVKGRFTISIDDDKNTAYLQMNSLKPEDTAVYYCAATKDIMSRSYDYWGLGTQVTVSS
3 | 3.08 | no binding | no binding | 1.66 | no binding | 1.88 | no binding | no binding | no binding | no binding | no binding | no binding | no binding | no binding | 4.62 | 0.0109 | 2.36e+06 | no binding |  | hBCMA-A6 (VHH, single biotin on the C-terminal AviTag, also called VHH-A6; not shown: C-terminal His tag and AviTag biotinylation signal from pMRO vector) VHH: QVQLVESGGGLVQPGGSLRLSCVASGSIFDAYNMGWYRQAPGKQRELVAAISSAGTTFYRDSVKGRFTVSRNNAKNTMYLQMDRLRPEDTAVYDCNGAPWGDAPVKVEDWGQGTQVTVSS
